# Laboratory results published in patent US20220048967A1 (published 2022).
# Numbering of substitutions follows the chain as printed.
# T1: human gastric inhibitory peptide receptor (GIPR) (human, UniProt P48546 22-466)
# T1 sequence (looked up): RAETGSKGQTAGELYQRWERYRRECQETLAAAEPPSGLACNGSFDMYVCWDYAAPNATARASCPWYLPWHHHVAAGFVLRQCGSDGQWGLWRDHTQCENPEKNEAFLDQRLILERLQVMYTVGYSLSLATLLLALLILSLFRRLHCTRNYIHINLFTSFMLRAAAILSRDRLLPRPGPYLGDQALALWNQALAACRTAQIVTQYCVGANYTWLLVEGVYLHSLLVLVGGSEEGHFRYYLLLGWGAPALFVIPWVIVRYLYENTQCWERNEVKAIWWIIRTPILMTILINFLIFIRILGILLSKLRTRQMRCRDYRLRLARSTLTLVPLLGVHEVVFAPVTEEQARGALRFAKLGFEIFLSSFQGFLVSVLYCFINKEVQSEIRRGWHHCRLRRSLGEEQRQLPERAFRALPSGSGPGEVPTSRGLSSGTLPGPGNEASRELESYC
# B1: Example 370 (peptide)
# peptide: XXEGTFTSDYSIXLDXKAQXEFIEYLIAGGPSSG
# modifications: D-Tyr1; Aib2; αMeL13; Orn16; K17 conjugated to (2-[2-(2-Amino-ethoxy)-ethoxy]-acetyl)2-(γ-Glu)-CO-(CH2)18-CO2H; Aib20; C-terminal amide
# B2: Example 370 (peptide)
# peptide: B1 peptide
# modifications: D-Tyr1, Aib2, αMeL13, Orn16, K17 conjugated to (2-[2-(2-Amino-ethoxy)-ethoxy]-acetyl)2-(γ-Glu)-CO-(CH2)18-CO2H, Aib20, C-terminal amide (NH2)
# B3: Example 367 (peptide)
# peptide: YXEGTFTSDYSIXLDKKAQXEFIEXLIAGGPSSGAPPPS
# modifications: Aib2; αMeL13; K17 conjugated to (2-[2-(2-Amino-ethoxy)-ethoxy]-acetyl)2-(γ-Glu)-CO-(CH2)18-CO2H; Aib20; αMeY25; C-terminal amide
# B4: Example 372 (peptide)
# peptide: B3 peptide with Y1X
# modifications: D-Tyr1, Aib2, αMeL13, K17 conjugated to (2-[2-(2-Amino-ethoxy)-ethoxy]-acetyl)-(γ-Glu)-CO-(CH2)18-CO2H, Aib20, αMeY25, C-terminal amide (NH2)
# B5: Example 374 (peptide)
# peptide: B3 peptide with Y1X
# modifications: D-Tyr1, Aib2, αMeL13, K17 conjugated to (2-[2-(2-Amino-ethoxy)-ethoxy]-acetyl)2-(γ-Glu)-CO-(CH2)16-CO2H, Aib20, αMeY25, C-terminal amide (NH2)
# B6: Example 372 (peptide)
# peptide: B3 peptide with Y1X
# modifications: D-Tyr1; Aib2; αMeL13; K17 conjugated to (2-[2-(2-Amino-ethoxy)-ethoxy]-acetyl)-(γ-Glu)-CO-(CH2)18-CO2H; Aib20; αMeY25; C-terminal amide
# B7: Example 367 (peptide)
# peptide: B3 peptide
# modifications: Aib2, αMeL13, K17 conjugated to (2-[2-(2-Amino-ethoxy)-ethoxy]-acetyl)2-(γ-Glu)-CO-(CH2)18-CO2H, Aib20, αMeY25, C-terminal amide (NH2)
# B8: Example 360 (peptide)
# peptide: XXEGTFTSDYSIXLDXKAQXAFVEYLIEGGPSSGAPPPS
# modifications: D-Tyr1; Aib2; αMeL13; Orn16; K17 conjugated to (2-[2-(2-Amino-ethoxy)-ethoxy]-acetyl)2-(γ-Glu)-CO-(CH2)18-CO2H; Aib20; C-terminal amide
# B9: Example 379 (peptide)
# peptide: B3 peptide with Y1X, A28E
# modifications: D-Tyr1, Aib2, αMeL13, K17 conjugated to (2-[2-(2-Amino-ethoxy)-ethoxy]-acetyl)2-(γ-Glu)-CO-(CH2)18-CO2H, Aib20, αMeY25, C-terminal amide (NH2)
# B10: Example 364 (peptide)
# peptide: B8 peptide with E24X, E28A
# modifications: D-Tyr1; Aib2; αMeL13; Orn16; K17 conjugated to (2-[2-(2-Amino-ethoxy)-ethoxy]-acetyl)2-(γ-Glu)-CO-(CH2)16-CO2H; Aib20; D-Glu24; C-terminal amide
# B11: Example 361 (peptide)
# peptide: B8 peptide with X16K, E24X, E28A
# modifications: D-Tyr1; Aib2; αMeL13; K17 conjugated to (2-[2-(2-Amino-ethoxy)-ethoxy]-acetyl)2-(γ-Glu)-CO-(CH2)18-CO2H; Aib20; D-Glu24; C-terminal amide
# B12: Example 373 (peptide)
# peptide: B3 peptide with Y1X, E21A
# modifications: D-Tyr1, Aib2, αMeL13, K17 conjugated to (2-[2-(2-Amino-ethoxy)-ethoxy]-acetyl)-(γ-Glu)-CO-(CH2)18-CO2H, Aib20, αMeY25, C-terminal amide (NH2)
# B13: Example 381 (peptide)
# peptide: B3 peptide with Y1X, K16E, E21A
# modifications: D-Tyr1, Aib2, αMeL13, K17 conjugated to (2-[2-(2-Amino-ethoxy)-ethoxy]-acetyl)2-(γ-Glu)-CO-(CH2)18-CO2H, Aib20, αMeY25, C-terminal amide (NH2)
# B14: Example 368 (peptide)
# peptide: B8 peptide with A21E, V23I, E28A
# modifications: D-Tyr1, Aib2, αMeL13, Orn16, K17 conjugated to (2-[2-(2-Amino-ethoxy)-ethoxy]-acetyl)2-(γ-Glu)-CO-(CH2)16-CO2H, Aib20, C-terminal amide (NH2)
# B15: Example 377 (peptide)
# peptide: B8 peptide with V23I, Y25X, E28A
# modifications: D-Tyr1, Aib2, αMeL13, Orn16, K17 conjugated to (2-[2-(2-Amino-ethoxy)-ethoxy]-acetyl)2-(γ-Glu)-CO-(CH2)16-CO2H, Aib20, αMeY25, C-terminal amide (NH2)
# B16: Example 369 (peptide)
# peptide: B8 peptide with A21D, V23I, E28A
# modifications: D-Tyr1, Aib2, αMeL13, Orn16, K17 conjugated to (2-[2-(2-Amino-ethoxy)-ethoxy]-acetyl)2-(γ-Glu)-CO-(CH2)18-CO2H, Aib20, C-terminal amide (NH2)
# B17: Example 366 (peptide)
# peptide: B8 peptide with V23I, Y25X, E28A
# modifications: D-Tyr1; Aib2; αMeL13; Orn16; K17 conjugated to (2-[2-(2-Amino-ethoxy)-ethoxy]-acetyl)2-(γ-Glu)-CO-(CH2)18-CO2H; Aib20; αMeY25; C-terminal amide
# B18: Example 363 (peptide)
# peptide: B8 peptide with V23I, E24X, E28A
# modifications: D-Tyr1; Aib2; αMeL13; Orn16; K17 conjugated to (2-[2-(2-Amino-ethoxy)-ethoxy]-acetyl)2-(γ-Glu)-CO-(CH2)16-CO2H; Aib20; D-Glu24; C-terminal amide
# B19: Example 375 (peptide)
# peptide: B3 peptide with Y1X, K16X
# modifications: D-Tyr1, Aib2, αMeL13, Orn16, K17 conjugated to (2-[2-(2-Amino-ethoxy)-ethoxy]-acetyl)2-(γ-Glu)-CO-(CH2)16-CO2H, Aib20, αMeY25, C-terminal amide (NH2)
# B20: Example 371 (peptide)
# peptide: B8 peptide with A21E, V23I, E28A
# modifications: D-Tyr1; Aib2; αMeL13; Orn16; K17 conjugated to (2-[2-(2-Amino-ethoxy)-ethoxy]-acetyl)-(γ-Glu)-CO-(CH2)18-CO2H; Aib20; C-terminal amide
# B21: Example 373 (peptide)
# peptide: B3 peptide with Y1X, E21A
# modifications: D-Tyr1; Aib2; αMeL13; K17 conjugated to (2-[2-(2-Amino-ethoxy)-ethoxy]-acetyl)-(γ-Glu)-CO-(CH2)18-CO2H; Aib20; αMeY25; C-terminal amide
# B22: Example 378 (peptide)
# peptide: B3 peptide with Y1X, X25Y
# modifications: D-Tyr1, Aib2, αMeL13, K17 conjugated to (2-[2-(2-Amino-ethoxy)-ethoxy]-acetyl)-(γ-Glu)-CO-(CH2)18-CO2H, Aib20, C-terminal amide (NH2)
# B23: Example 368 (peptide)
# peptide: B8 peptide with A21E, V23I, E28A
# modifications: D-Tyr1; Aib2; αMeL13; Orn16; K17 conjugated to (2-[2-(2-Amino-ethoxy)-ethoxy]-acetyl)2-(γ-Glu)-CO-(CH2)16-CO2H; Aib20; C-terminal amide
# B24: Example 365 (peptide)
# peptide: B3 peptide with Y1X, E21A
# modifications: D-Tyr1; Aib2; αMeL13; K17 conjugated to (2-[2-(2-Amino-ethoxy)-ethoxy]-acetyl)2-(γ-Glu)-CO-(CH2)18-CO2H; Aib20; αMeY25; C-terminal amide
# B25: Example 362 (peptide)
# peptide: B8 peptide with E24X, E28A
# modifications: D-Tyr1; Aib2; αMeL13; Orn16; K17 conjugated to (2-[2-(2-Amino-ethoxy)-ethoxy]-acetyl)2-(γ-Glu)-CO-(CH2)18-CO2H; Aib20; D-Glu24; C-terminal amide
# B26: Example 369 (peptide)
# peptide: B8 peptide with A21D, V23I, E28A
# modifications: D-Tyr1; Aib2; αMeL13; Orn16; K17 conjugated to (2-[2-(2-Amino-ethoxy)-ethoxy]-acetyl)2-(γ-Glu)-CO-(CH2)18-CO2H; Aib20; C-terminal amide
# B27: Example 371 (peptide)
# peptide: B8 peptide with A21E, V23I, E28A
# modifications: D-Tyr1, Aib2, αMeL13, Orn16, K17 conjugated to (2-[2-(2-Amino-ethoxy)-ethoxy]-acetyl)-(γ-Glu)-CO-(CH2)18-CO2H, Aib20, C-terminal amide (NH2)
# B28: Example 376 (peptide)
# peptide: B3 peptide with Y1X, E21A
# modifications: D-Tyr1, Aib2, αMeL13, K17 conjugated to (2-[2-(2-Amino-ethoxy)-ethoxy]-acetyl)2-(γ-Glu)-CO-(CH2)16-CO2H, Aib20, αMeY25, C-terminal amide (NH2)
# B29: Example 380 (peptide)
# peptide: B8 peptide with A21E, V23I, Y25X
# modifications: D-Tyr1, Aib2, αMeL13, Orn16, K17 conjugated to (2-[2-(2-Amino-ethoxy)-ethoxy]-acetyl)2-(γ-Glu)-CO-(CH2)18-CO2H, Aib20, αMeY25, C-terminal amide (NH2)
# Key:
# Experiment in all cases: cell-based or functional assay
# [1] = biological target: T1, human gastric inhibitory peptide …
# [2] = biological target: human GLP-1 receptor (GLP-1R) (human, UniProt P43220 24-463)
# [3] = biological target: human GLP-1 receptor (human, UniProt P43220 24-463)
# [4] = biological target: Pro-Link-tagged Human GLP-1R (human, UniProt P43220 24-463)
# Wherever hGIPR cAMP EC50 ratio is given: reference of the scale not given here.
# Wherever hGLP1R B-Arrestin2 % Top is given: reference of the scale not given here.
# Wherever hGLP1R GTPgS % Top is given: reference of the scale not given here.
# Wherever hGLP1R cAMP EC50 ratio is given: reference of the scale not given here.
Binder,hGIPR cAMP EC50 ratio [1],hGIPR cAMP Rel EC50 [1],hGLP1R cAMP EC50 ratio [2],hGLP1R cAMP Rel EC50 [2],hGLP1R GTPgS % Top [3],hGLP1R GTPgS Rel EC50 [3],hGLP1R B-Arrestin2 % Top [4],hGLP1R B-Arrestin2 Rel EC50 [4]
B1,0.704 ratio,0.117 nM,0.172 ratio,0.186 nM,,,,
B2,,,,,63.7%,0.428 nM,23%,9.9 nM
B3,5.85 ratio,0.0179 nM,0.386 ratio,0.0641 nM,,,,
B4,,,,,69.1%,0.379 nM,32.9%,9.81 nM
B5,,,,,67.1%,0.345 nM,34.7%,21.8 nM
B6,0.68 ratio,0.0781 nM,0.0741 ratio,0.365 nM,,,,
B7,,,,,89.7%,0.289 nM,70.6%,6.66 nM
B8,0.53 ratio,0.197 nM,0.171 ratio,0.145 nM,,,,
B9,,,,,71%,0.239 nM,31.9%,18.1 nM
B10,0.347 ratio,0.351 nM,0.0303 ratio,1 nM,,,,
B11,0.261 ratio,0.401 nM,0.0259 ratio,0.955 nM,,,,
B12,,,,,65.6%,0.336 nM,22.9%,9.54 nM
B13,,,,,73.6%,0.273 nM,25.8%,15.5 nM
B14,,,,,68.9%,0.495 nM,21.3%,47.9 nM
B15,,,,,68.4%,0.356 nM,16.7%,5.32 nM
B16,,,,,58.8%,0.381 nM,19.9%,41.4 nM
B17,0.598 ratio,0.0889 nM,0.074 ratio,0.366 nM,,,,
B18,0.835 ratio,0.145 nM,0.146 ratio,0.208 nM,,,,
B19,,,,,70.4%,0.419 nM,24.2%,11.4 nM
B20,0.393 ratio,0.135 nM,0.206 ratio,0.132 nM,,,,
B21,0.287 ratio,0.185 nM,0.0621 ratio,0.436 nM,,,,
B22,,,,,68.6%,0.359 nM,,> 10200 nM
B23,0.109 ratio,0.0757 nM,0.299 ratio,0.108 nM,,,,
B24,0.784 ratio,0.0678 nM,0.155 ratio,0.175 nM,,,,
B25,0.347 ratio,0.302 nM,0.0805 ratio,0.365 nM,,,,
B26,0.499 ratio,0.166 nM,0.319 ratio,0.101 nM,,,,
B27,,,,,62.5%,0.27 nM,21.7%,14.2 nM
B28,,,,,72.6%,0.326 nM,25.6%,12.3 nM
B29,,,,,66.8%,0.188 nM,35%,13.7 nM
